# Measurements as given in the RNAGym collection of RNA variant scans (doi:10.7554/elife.80360).
# B1: HDV Ribozyme (parent)
# chain: GGCCGGCAUGGUCCCAGCCUCCUCGCUGGCGCCGGCUGGGCAACAUUCCGAGGGGACCGUCCCCUCGGUAAUGGCGAAUGGGACCCA
# Variants of: B1
# Experiment: self-cleavage, relative activity (ratio to wild type); higher = more cleavage; co-transcriptional
row,Variant,self-cleavage
1,G6U U9C,0.465
2,G40C G68A,0.201
3,G31C U60G,0.222
4,G31A C62U,0.554
5,U46C A70U,0.957
6,C58U C66U,0.911
7,C19A C44A,0.149
8,G28C A56U,0.138
9,C41G A78U,0.178
10,U23A C85A,0.68
11,C33U A45C,0.494
12,G10A G81A,0.187
13,G38U A87U,0.255
14,G25C G59U,0.116
15,U37A U79C,0.0623
16,C30A C63U,0.415
17,G5U C62U,0.467
18,G39C U72G,0.128
19,G38C G76A,0.205
20,G29C U60G,0.199
21,G28A G81U,0.0287
22,U20A A51U,0.104
23,C21U U37G,0.0875
24,G6C G10A,0.147

row,Variant,self-cleavage
1,U60A U65G,1.09
2,U9C G81U,0.237
3,G28C A87G,0.125
4,U20A C84U,0.0449
5,U46G G53C,0.465
6,U37A C62G,0.151
7,U20C C57A,0.0449
8,C75G G80A,0.11
9,C13A A78G,0.0773
10,U46G A70U,0.997
11,C41U U47A,0.96
12,C66A C86A,0.769
13,C48U G53A,0.888
14,A8U G40C,0.234
15,U60A C85A,0.831
16,G1C C62G,0.0831
17,C44G C49A,0.665
18,G29U A83G,0.0329
19,C30U G81C,0.148
20,G73A U79G,0.248
21,C30A G80C,0.272
22,G10U G59U,0.905
23,C33G C61U,0.212
24,U27C A70U,0.72

row,Variant,self-cleavage
1,U46A G80C,0.0831
2,C13A G68C,0.151
3,C19U C64G,0.0923
4,C36A U79G,0.175
5,C49A U79G,0.665
6,C3G C4A,0.0767
7,G38A G76U,0.202
8,C32G G82U,0.228
9,U37A G67A,0.215
10,C22A U46A,0.104
11,G1U C3U,0.696
12,C26A G76A,1.03
13,G52A C63U,0.969
14,A51C G81U,0.38
15,A77G A78G,0.277
16,G6U U60G,0.346
17,A56G G74A,0.45
18,C22A G82C,0
19,A42U G76A,0.764
20,C18A G81C,0.163
21,C44G U60C,0.569
22,G29U C75G,0.116
23,G54U A87C,1.06
24,A8U G76C,0.965

row,Variant,self-cleavage
1,U20A G80U,0.0141
2,C33G U37C,0.122
3,U23C G34U,0.145
4,C13U U79A,0.256
5,A16G G34U,0.324
6,C62G U79A,0.489
7,C30U G55U,0.789
8,G40A C58U,1.18
9,C24U G67A,0.554
10,G17C G34U,0.0415
11,C22U G59U,0.858
12,C32U G55U,0.935
13,G39C C58G,0.277
14,C41U G54U,0.931
15,A16G G29C,0
16,A8G G31C,0.145
17,G6C C36G,0.158
18,C7G C19U,0
19,G52C C61A,0.857
20,G55A C86A,0.978
21,U47A G76C,0.812
22,C18U C57A,0.958
23,G73U G76U,0.212
24,G5A C32A,0

row,Variant,self-cleavage
1,A51G C75A,0.17
2,G6C U27C,0.0923
3,G11C G29A,0
4,C3G C84G,0.41
5,C13G G17U,0.0426
6,C30U A83U,0.151
7,A42C G54U,0.312
8,G1C A77C,0
9,G2C G31U,0.109
10,C7G G35U,0.0811
11,G6A C26G,0.856
12,C66A A83G,0.641
13,C15U C75G,0.0665
14,G2A A51C,0.203
15,C21U U27A,0.0536
16,A83G C86G,0.807
17,A8U G29A,0.0852
18,C3U G5A,0.123
19,G68C A77U,0.755
20,C19G A78G,0.0875
21,U37A C75A,0.0707
22,U23G C33G,0.161
23,C13U G34U,0.0268
24,U23C G28U,0.249

row,Variant,self-cleavage
1,A43G A78U,0.178
2,C22A C84U,0.256
3,G29A G67A,0.0791
4,A8G G76C,1.13
5,A78G C85A,0.86
6,C19U A78C,0.172
7,G1U G31C,0.356
8,C58U C75A,0.095
9,G1A A42G,0.115
10,G59C A77C,0.101
11,U37G G80C,0.0449
12,U27C G54C,0.538
13,U9A C63U,1.19
14,G29U C66A,0.201
15,C32A U37G,0.166
16,C33A U65C,0.158
17,G2U G52A,0.0704
18,C32G C49A,0
19,U20C C26U,0.192
20,A70C A87G,0.858
21,C41U A42C,0.519
22,U12A C58U,0.302
23,C7U G52C,0.849
24,C14U C18G,0.0875

row,Variant,self-cleavage
1,C21U A87C,0.206
2,G68A G80A,0.367
3,C15U U20C,0
4,G40C G52A,0.247
5,C7U U47G,0.9
6,C4G G40U,0.381
7,G31U A87G,0.323
8,C3U U65C,0.78
9,G11A C84G,0.851
10,U23G G67A,0.628
11,C32A U60G,0.138
12,C4G U65A,0.525
13,C3U C57G,0.803
14,C4A C63A,0.354
15,G31A C84U,0.337
16,A43G A83G,0.215
17,G73A C86U,0.831
18,U9A G38U,0.237
19,G6U C18U,0.0369
20,A45G U79C,0.674
21,G2C G17A,0
22,C7U U72G,0.332
23,U65G G74U,0.424
